Test [1] addresses TREM-1-interacting protein on PGN-stimulated neutrophils. Kind of test: flow cytometry competition: 2 µg/ml TREM-1 tetramer as probe with 100 µg/ml DCIR COMP; did not compete. (A flow cytometer gives signals particle by particle.)
Test [2] concerns the target Type II 1.0 PGLYRP1 on HEK293 6E cells (human). Kind of test: cell-based or functional assay.
In test [3] the target is TREM-1-interacting protein on PGN-stimulated neutrophils. Kind of test: flow cytometry competition: 2 µg/ml TREM-1 tetramer as probe with 100 µg/ml TREM COMP.
In test [4] the target is human TREM-1 on BWZ.36/hTREM-1:DAP12:NFAT-LacZ reporter cells (human) (UniProt Q9NP99). Kind of test: cell-based or functional assay.
Test [5] concerns the target Type II PGLYRP3 on HEK293-6E cells (human). Nature of the test: flow cytometry on transfected HEK293-6E cells.
Test [6] addresses Type II PGLYRP1 on HEK293-6E cells (Example 15) (human). Nature of the test: flow cytometry on transfected HEK293-6E cells.
The target of test [7] is Type II PGLYRP3 + 4 on HEK293-6E cells (human). Nature of the test: flow cytometry on transfected HEK293-6E cells.
Test [8] has as its target Type II PGLYRP1 on HEK293-6E cells (Example 15) (human). Kind of test: flow cytometry on transfected HEK293-6E cells, probe 5 ug/ml; grade of MFI ratio over negative control (++++ is >30).
Test [9] has as its target TREM-1-interacting protein on PGN-stimulated neutrophils. Nature of the test: flow cytometry on PGN-stimulated neutrophils, 2 µg/ml probe, goat anti hFc/PE.

Sequence of Type II PGLYRP3 on HEK293-6E cells (human) (Q96LB9 other isoform, or with tags, fused parts or gaps, form in doubt): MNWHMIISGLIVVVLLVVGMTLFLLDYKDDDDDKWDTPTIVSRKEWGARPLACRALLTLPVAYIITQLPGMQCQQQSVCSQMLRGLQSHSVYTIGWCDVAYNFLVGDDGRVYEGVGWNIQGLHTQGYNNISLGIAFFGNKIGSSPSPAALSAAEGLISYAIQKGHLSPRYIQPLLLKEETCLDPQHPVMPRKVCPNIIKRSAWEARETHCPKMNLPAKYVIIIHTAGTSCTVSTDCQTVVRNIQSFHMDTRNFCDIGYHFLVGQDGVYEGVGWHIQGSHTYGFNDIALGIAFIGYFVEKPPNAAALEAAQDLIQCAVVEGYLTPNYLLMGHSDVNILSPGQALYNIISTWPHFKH
Sequence of Type II PGLYRP3 + 4 on HEK293-6E cells (human) (Q96LB9 other isoform, or with tags, fused parts or gaps, form in doubt, chain 1 of 2): as the sequence (Q96LB9 other isoform, or with tags, fused parts or gaps, form in doubt) above
Sequence of Type II PGLYRP3 + 4 on HEK293-6E cells (human) (Q96LB8 other isoform, or with tags, fused parts or gaps, form in doubt, chain 2 of 2, further chain): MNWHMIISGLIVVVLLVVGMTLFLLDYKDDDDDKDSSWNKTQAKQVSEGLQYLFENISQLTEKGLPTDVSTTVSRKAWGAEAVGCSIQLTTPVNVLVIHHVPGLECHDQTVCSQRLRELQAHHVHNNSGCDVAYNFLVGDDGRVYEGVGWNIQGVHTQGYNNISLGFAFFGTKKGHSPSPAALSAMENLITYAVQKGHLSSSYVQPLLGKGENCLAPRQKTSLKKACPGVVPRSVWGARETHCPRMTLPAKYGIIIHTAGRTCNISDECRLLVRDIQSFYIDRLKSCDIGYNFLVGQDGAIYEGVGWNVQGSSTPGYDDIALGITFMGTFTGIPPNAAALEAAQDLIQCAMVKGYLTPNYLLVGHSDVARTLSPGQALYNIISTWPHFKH
Sequence of Type II PGLYRP1 on HEK293-6E cells (Example 15) (human) (chain, as listed by the source limits assumed, form in doubt): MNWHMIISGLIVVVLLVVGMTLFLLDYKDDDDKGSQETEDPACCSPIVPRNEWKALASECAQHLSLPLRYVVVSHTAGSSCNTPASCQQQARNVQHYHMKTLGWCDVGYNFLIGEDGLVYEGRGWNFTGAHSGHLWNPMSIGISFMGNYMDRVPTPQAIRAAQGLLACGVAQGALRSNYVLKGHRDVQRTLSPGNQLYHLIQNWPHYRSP
Sequence of Type II 1.0 PGLYRP1 on HEK293 6E cells (human) (chain, as listed by the source limits assumed): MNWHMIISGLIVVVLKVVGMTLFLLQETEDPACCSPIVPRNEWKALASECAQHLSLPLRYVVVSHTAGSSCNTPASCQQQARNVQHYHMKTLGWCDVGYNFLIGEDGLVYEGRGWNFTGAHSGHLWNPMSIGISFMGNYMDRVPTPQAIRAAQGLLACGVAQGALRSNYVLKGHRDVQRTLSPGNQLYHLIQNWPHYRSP
Sequence of human TREM-1 on BWZ.36/hTREM-1:DAP12:NFAT-LacZ reporter cells (human) (Q9NP99 21-234): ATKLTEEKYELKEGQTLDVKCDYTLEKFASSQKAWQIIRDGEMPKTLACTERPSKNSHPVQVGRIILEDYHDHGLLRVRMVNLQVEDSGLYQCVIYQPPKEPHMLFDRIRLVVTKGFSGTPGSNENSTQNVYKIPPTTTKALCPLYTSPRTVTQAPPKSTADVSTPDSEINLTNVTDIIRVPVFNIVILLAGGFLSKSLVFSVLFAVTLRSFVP

Turning to DCIR COMP (6HIS-SBP38x2-COMP-hDCIR), in test [1], the % positive cells (TREM-1 tetramer staining with competitor) was 41%.

Regarding “IsoAb (isotype control antibody of Example 18)”, in [2], the Activity of BWZ/hTREM1 reporter cells with Type II 1.0 PGLYRP1 transfectants (without antibody: 100%) turned out to be 98%.

For the substance TREM COMP (hTREM-1-COMP-SBP38x2-6HIS), the % positive cells (TREM-1 tetramer staining with competitor) in [3] came to 10%.

For “Type II 1.0 PGLYRP1 on HEK293 6E cells (ligand)”, in [4], the Fold activity of BWZ/hTREM1 reporter cells co-incubated with transfected HEK293 6E cells, without PGN, against empty vector stood at 24 fold.

Regarding huTREM2.Fc dimer (C0248) (Fc fusion), the ratio of MFI of probe staining over negative control staining in [5], in test [6] and in test [7] was below 1 each time.

As to huTREM-1.Fc dimer (C0099) (Fc fusion), the ratio of MFI of probe staining over negative control staining in [8] was above 30; in test [5], below 1; in test [7], below 1.

Turning to huTREML1.Fc dimer (C0246) (Fc fusion), the ratio of MFI of probe staining over negative control staining in [5], in [6] and in [7] was below 1 throughout.

As to huTREML2.Fc dimer (C0247) (Fc fusion), the ratio of MFI of probe staining over negative control staining in test [5], in [6] and in test [7] was below 1 each time.

Turning to “human TREM-1-G4Sx3-TREM-1/Fc6mut (TREM-1 tetramer) (Fc fusion)”, the % positive cells in test [9] was determined as 39%.

Values taken from patent US20150018528A1.
